Source: patent US20250388669A1 (published 2025)

T1: CD19 (human, UniProt P15391 20-556)
T1 sequence (looked up): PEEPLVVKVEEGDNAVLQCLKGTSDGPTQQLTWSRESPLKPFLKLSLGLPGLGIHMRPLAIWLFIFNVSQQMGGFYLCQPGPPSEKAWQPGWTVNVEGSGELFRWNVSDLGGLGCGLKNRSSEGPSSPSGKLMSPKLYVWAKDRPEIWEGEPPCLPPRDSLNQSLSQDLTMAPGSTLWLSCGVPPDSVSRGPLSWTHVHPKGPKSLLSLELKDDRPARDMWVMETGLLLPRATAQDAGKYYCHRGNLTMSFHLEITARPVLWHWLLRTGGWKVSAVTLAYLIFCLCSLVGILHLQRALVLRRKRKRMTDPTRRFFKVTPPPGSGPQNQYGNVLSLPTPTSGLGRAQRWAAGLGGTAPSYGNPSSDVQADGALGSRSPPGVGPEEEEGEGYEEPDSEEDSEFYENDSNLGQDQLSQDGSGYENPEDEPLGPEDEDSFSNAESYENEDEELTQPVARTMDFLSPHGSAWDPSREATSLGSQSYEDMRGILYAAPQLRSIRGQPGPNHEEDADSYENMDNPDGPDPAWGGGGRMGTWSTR


Columns and labels:
PD-1 (binding assay) = PD-1 (binding assay) (UniProt Q15116 25-167, limits assumed); test: FCM or ELISA, graded
CD40 = CD40 (UniProt P25942 21-193, limits assumed); test: FCM or ELISA, graded
CD137 = biological target: T2, CD137 (human, UniProt Q07011 24-186); test: CD137 binding by FCM or ELISA
T2 construct: Reporter assays used GS-H2-huCD137 cells expressing human CD137; also called 4-1BB/CD137; huCD137

CD19 = biological target: T1, CD19; test: cell-based or functional assay

CD40, sequence (P25942 21-193 limits assumed): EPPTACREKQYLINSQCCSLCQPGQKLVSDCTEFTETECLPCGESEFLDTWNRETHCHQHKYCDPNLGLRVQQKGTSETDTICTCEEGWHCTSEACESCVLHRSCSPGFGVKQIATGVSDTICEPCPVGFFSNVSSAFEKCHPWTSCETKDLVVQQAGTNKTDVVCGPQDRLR
PD-1 (binding assay), sequence (Q15116 25-167 limits assumed): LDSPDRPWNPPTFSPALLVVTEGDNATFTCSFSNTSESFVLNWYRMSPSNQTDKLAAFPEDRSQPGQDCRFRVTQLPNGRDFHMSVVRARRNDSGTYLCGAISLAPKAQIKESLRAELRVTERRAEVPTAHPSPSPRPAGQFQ

Row | Binder | binding result (PD-1 (binding assay)) | binding result (CD40) | binding result (CD137) | EC50 of cytotoxicity (LDH release), Raji cells with human PBMCs, 48 hours (CD19)
1 | Ly2409 (bispecific antibody, PD-1 Fabs (Ly516) x central CD40 Fv (TM559)) heavy 1: QVTLKESGPALVKPTQTLTLTCTFSGFSLSTSGTCVSWIRQPPGKALEWLATICWEDSKGYNPSLKSRLTISKDTSKNQAVLTMTNMDPVDTATYYCARREDSGYFWFPYWGQGTLVTVSSASTKGPSVFPLAPSSKSTSGGTAALGCLVKDYFPEPVTVSWNSGALTSGVHTFPAVLQSSGLYSLSSVVTVPSSSLGTQTYICNVNHKPSNTKVDKKVEPKSCGGGGSGGGGSGGGGSGGGGSEVQLVESGGGLVQPGGSLRLSCAASGFTFTNYGLHWVRQAPGKGLEWVSSISPSGGVTYYRDSVKGRFTISRDNSKNTLYLQMNSLRAEDTAVYYCAKPFLGWGGANWIAHWGQGTLVTVSSGGGGSDKTHTCPPCPAPEAAGPSVFLFPPKPKDTLMISRTPEVTCVVVDVSHEDPEVKFNWYVDGVEVHNAKTKPREEQYNSTYRVVSVLTVLHQDWLNGKEYKCKVSNKALPAPIEKTISKAKGQPREPQVYTLPPSREEMTKNQVSLWCLVKGFYPSDIAVEWESNGQPENNYKTTPPVLDSDGSFFLYSKLTVDKSRWQQGNVFSCSVMHEALHNHYTQKSLSLSPG heavy 2: QVTLKESGPALVKPTQTLTLTCTFSGFSLSTSGTCVSWIRQPPGKALEWLATICWEDSKGYNPSLKSRLTISKDTSKNQAVLTMTNMDPVDTATYYCARREDSGYFWFPYWGQGTLVTVSSASTKGPSVFPLAPSSKSTSGGTAALGCLVKDYFPEPVTVSWNSGALTSGVHTFPAVLQSSGLYSLSSVVTVPSSSLGTQTYICNVNHKPSNTKVDKKVEPKSCGGGGSGGGGSGGGGSGGGGSDIQMTQSPSSLSASVGDRVTITCLASEDISNDLAWYQQKPGKAPKLLIYFVDRLLDGVPSRFSGSGSGTDFTLTISSLQPEDFATYYCQQSYKYPPTFGQGTKLEIKGGGGSDKTHTCPPCPAPEAAGPSVFLFPPKPKDTLMISRTPEVTCVVVDVSHEDPEVKFNWYVDGVEVHNAKTKPREEQYNSTYRVVSVLTVLHQDWLNGKEYKCKVSNKALPAPIEKTISKAKGQPREPQVYTLPPSREEMTKNQVSLSCAVKGFYPSDIAVEWESNGQPENNYKTTPPVLDSDGSFFLVSKLTVDKSRWQQGNVFSCSVMHEALHNRFTQKSLSLSPG light: NIQMTQSPSSLSASVGDRVTITCKAGQNVNNYLAWYQQKPGKAPKVLIFNANSLQTGVPSRFSGSGSGTDFTLTISSLQPEDFATYYCQQYNSWPTFGGGTKVEIKRTVAAPSVFIFPPSDEQLKSGTASVVCLLNNFYPREAKVQWKVDNALQSGNSQESVTEQDSKDSTYSLSSTLTLSKADYEKHKVYACEVTHQGLSSPVTKSFNRGEC | binds | binds | – | –
2 | Ly2415 (bispecific antibody, human IgG1, kappa, PD-1 Fabs (Ly516) x terminal CD40 Fv (TM559)) heavy 1: QVTLKESGPALVKPTQTLTLTCTFSGFSLSTSGTCVSWIRQPPGKALEWLATICWEDSKGYNPSLKSRLTISKDTSKNQAVLTMTNMDPVDTATYYCARREDSGYFWFPYWGQGTLVTVSSASTKGPSVFPLAPSSKSTSGGTAALGCLVKDYFPEPVTVSWNSGALTSGVHTFPAVLQSSGLYSLSSVVTVPSSSLGTQTYICNVNHKPSNTKVDKKVEPKSCDKTHTCPPCPAPEAAGPSVFLFPPKPKDTLMISRTPEVTCVVVDVSHEDPEVKFNWYVDGVEVHNAKTKPREEQYNSTYRVVSVLTVLHQDWLNGKEYKCKVSNKALPAPIEKTISKAKGQPREPQVYTLPPSREEMTKNQVSLWCLVKGFYPSDIAVEWESNGQPENNYKTTPPVLDSDGSFFLYSKLTVDKSRWQQGNVFSCSVMHEALHNHYTQKSLSLSPGGGGGSGGGGSGGGGSGGGGSEVQLVESGGGLVQPGGSLRLSCAASGFTFTNYGLHWVRQAPGKGLEWVSSISPSGGVTYYRDSVKGRFTISRDNSKNTLYLQMNSLRAEDTAVYYCAKPFLGWGGANWIAHWGQGTLVTVSS heavy 2: QVTLKESGPALVKPTQTLTLTCTFSGFSLSTSGTCVSWIRQPPGKALEWLATICWEDSKGYNPSLKSRLTISKDTSKNQAVLTMTNMDPVDTATYYCARREDSGYFWFPYWGQGTLVTVSSASTKGPSVFPLAPSSKSTSGGTAALGCLVKDYFPEPVTVSWNSGALTSGVHTFPAVLQSSGLYSLSSVVTVPSSSLGTQTYICNVNHKPSNTKVDKKVEPKSCDKTHTCPPCPAPEAAGPSVFLFPPKPKDTLMISRTPEVTCVVVDVSHEDPEVKFNWYVDGVEVHNAKTKPREEQYNSTYRVVSVLTVLHQDWLNGKEYKCKVSNKALPAPIEKTISKAKGQPREPQVYTLPPSREEMTKNQVSLSCAVKGFYPSDIAVEWESNGQPENNYKTTPPVLDSDGSFFLVSKLTVDKSRWQQGNVFSCSVMHEALHNRFTQKSLSLSPGGGGGSGGGGSGGGGSGGGGSDIQMTQSPSSLSASVGDRVTITCLASEDISNDLAWYQQKPGKAPKLLIYFVDRLLDGVPSRFSGSGSGTDFTLTISSLQPEDFATYYCQQSYKYPPTFGQGTKLEIK light: NIQMTQSPSSLSASVGDRVTITCKAGQNVNNYLAWYQQKPGKAPKVLIFNANSLQTGVPSRFSGSGSGTDFTLTISSLQPEDFATYYCQQYNSWPTFGGGTKVEIKRTVAAPSVFIFPPSDEQLKSGTASVVCLLNNFYPREAKVQWKVDNALQSGNSQESVTEQDSKDSTYSLSSTLTLSKADYEKHKVYACEVTHQGLSSPVTKSFNRGEC | binds | binds | – | –
3 | Ly1966 (other, Tri-specific CD19/CD3/CD137: two CD19 Fabs, central CD3 Fv, terminal CD137 Fv) chain 1: QVQLQQSGAELVRPGSSVKISCKASGYAFSSYWMNWVKQRPGQGLEWIGQIWPGDGDTNYNGKFKGKATLTADESSSTAYMQLSSLASEDSAVYFCARRETTTVGRYYYAMDYWGQGTTVTVSSASTKGPSVFPLAPSSKSTSGGTAALGCLVKDYFPEPVTVSWNSGALTSGVHTFPAVLQSSGLYSLSSVVTVPSSSLGTQTYICNVNHKPSNTKVDKKVEPKSCGGGGSGGGGSGGGGSGGGGSEVQLVESGGGLVQPGGSLRLSCAASGFTFSTYAMNWVRQAPGKGLEWVGRIRSKYNNYATYYADSVKGRFTISRDDSKNSLYLQMNSLKTEDTAVYYCVRHGNFGNSYVSWFAYWGQGTLVTVSSGGGGSDKTHTCPPCPAPEAAGPSVFLFPPKPKDTLMISRTPEVTCVVVDVSHEDPEVKFNWYVDGVEVHNAKTKPREEQYNSTYRVVSVLTVLHQDWLNGKEYKCKVSNKALPAPIEKTISKAKGQPREPQVYTLPPSREEMTKNQVSLWCLVKGFYPSDIAVEWESNGQPENNYKTTPPVLDSDGSFFLYSKLTVDKSRWQQGNVFSCSVMHEALHNHYTQKSLSLSPGGGGGSGGGGSGGGGSGGGGSQVQLVQSGAEVKKPGASVKVSCKASGYTFAGFEMHWVRQAPGQGLEWMGAIDPKTGGTDYNQKFKDRVTMTRDTSISTAYMELSRLRSDDTAVYYCARDLGYFDVWGQGTLVTVSS chain 2: QVQLQQSGAELVRPGSSVKISCKASGYAFSSYWMNWVKQRPGQGLEWIGQIWPGDGDTNYNGKFKGKATLTADESSSTAYMQLSSLASEDSAVYFCARRETTTVGRYYYAMDYWGQGTTVTVSSASTKGPSVFPLAPSSKSTSGGTAALGCLVKDYFPEPVTVSWNSGALTSGVHTFPAVLQSSGLYSLSSVVTVPSSSLGTQTYICNVNHKPSNTKVDKKVEPKSCGGGGSGGGGSGGGGSGGGGSQAVVTQEPSLTVSPGGTVTLTCRSSTGAVTTSNYANWVQQKPGQAPRGLIGGTNKRAPWTPARFSGSLLGGKAALTITGAQAEDEADYYCALWYSNLWVFGGGTKLTVLGGGGSDKTHTCPPCPAPEAAGPSVFLFPPKPKDTLMISRTPEVTCVVVDVSHEDPEVKFNWYVDGVEVHNAKTKPREEQYNSTYRVVSVLTVLHQDWLNGKEYKCKVSNKALPAPIEKTISKAKGQPREPQVYTLPPSREEMTKNQVSLSCAVKGFYPSDIAVEWESNGQPENNYKTTPPVLDSDGSFFLVSKLTVDKSRWQQGNVFSCSVMHEALHNRFTQKSLSLSPGGGGGSGGGGSGGGGSGGGGSDIQMTQSPSSLSASVGDRVTITCRASQDIRSNLNWYQQKPGGAVKLLIYYTSRLHSGVPSRFSGSGSGTDYTLTISSLQPEDFATYFCQQSEKLPRTFGGGTKVEIR light: not shown | – | – | binds | 0.0108 nM
